# Laboratory results reported in paper PMC4940160, “Architecture and RNA binding of the human negative elongation factor”.
# How the values were obtained:
# [1] = molecular target: NELF-A (6-188);NELF-C (183-590) (Homo sapiens;Homo sapiens, UniProt Q9H3P2;Q8IXH7 6-188;183-590, |); assay: fluorescence anisotropy; NELF-AC: 30 mM NaCl, 3 mM MgCl2, 10 mM Na-HEPES pH 7.4, 2 mM DTT, 50 ug/ml BSA; other NELF complexes: same with 60 mM NaCl and 5 ug/ml yeast tRNA; 10 nM nucleic acid, incubated at RT, read at 30 C; conditions: protein: recombinant;recombinant, tags: N-His6 removed by thrombin;none, copies: 1;1
# NELF-A (6-188);NELF-C (183-590), sequence (Q9H3P2 6-188, chain 1 of 2): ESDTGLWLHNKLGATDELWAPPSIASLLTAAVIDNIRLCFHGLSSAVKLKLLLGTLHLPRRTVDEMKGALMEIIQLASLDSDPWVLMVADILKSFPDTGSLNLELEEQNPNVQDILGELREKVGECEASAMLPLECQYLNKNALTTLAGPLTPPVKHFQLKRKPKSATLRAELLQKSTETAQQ
# NELF-A (6-188);NELF-C (183-590), sequence (Q8IXH7 183-590, chain 2 of 2): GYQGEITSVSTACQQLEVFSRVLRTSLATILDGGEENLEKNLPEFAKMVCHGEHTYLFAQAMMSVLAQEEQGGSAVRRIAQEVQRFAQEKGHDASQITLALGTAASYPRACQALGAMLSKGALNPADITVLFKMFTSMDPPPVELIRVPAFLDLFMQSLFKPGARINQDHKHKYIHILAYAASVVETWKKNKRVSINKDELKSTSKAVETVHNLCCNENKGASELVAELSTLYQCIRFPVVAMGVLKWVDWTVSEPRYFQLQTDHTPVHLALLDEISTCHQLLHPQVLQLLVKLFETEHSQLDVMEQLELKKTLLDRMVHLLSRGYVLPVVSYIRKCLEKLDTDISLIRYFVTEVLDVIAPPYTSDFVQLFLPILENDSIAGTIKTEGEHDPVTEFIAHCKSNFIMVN
# [2] = molecular target: NELF-A full-length;NELF-B;NELF-D (called NELF-C) (Homo sapiens;Homo sapiens;Homo sapiens, UniProt Q9H3P2;Q8WX92;Q8IXH7-4 1-528;49-628;1-581, ||); assay: fluorescence anisotropy; yeast tRNA 5 ug/ml; NELF-AC: 30 mM NaCl, 3 mM MgCl2, 10 mM Na-HEPES pH 7.4, 2 mM DTT, 50 ug/ml BSA; other NELF complexes: same with 60 mM NaCl and 5 ug/ml yeast tRNA; 10 nM nucleic acid, incubated at RT, read at 30 C; conditions: protein: recombinant;recombinant;recombinant, tags: none stated;N-His6-TEV in NELF-B and NELF-BE constructs (cleaved);N-His6-TEV, cleaved, copies: 1;1;1, label: 5'-FAM
# NELF-A full-length;NELF-B;NELF-D (called NELF-C), sequence (Q9H3P2 whole entry, chain 1 of 3): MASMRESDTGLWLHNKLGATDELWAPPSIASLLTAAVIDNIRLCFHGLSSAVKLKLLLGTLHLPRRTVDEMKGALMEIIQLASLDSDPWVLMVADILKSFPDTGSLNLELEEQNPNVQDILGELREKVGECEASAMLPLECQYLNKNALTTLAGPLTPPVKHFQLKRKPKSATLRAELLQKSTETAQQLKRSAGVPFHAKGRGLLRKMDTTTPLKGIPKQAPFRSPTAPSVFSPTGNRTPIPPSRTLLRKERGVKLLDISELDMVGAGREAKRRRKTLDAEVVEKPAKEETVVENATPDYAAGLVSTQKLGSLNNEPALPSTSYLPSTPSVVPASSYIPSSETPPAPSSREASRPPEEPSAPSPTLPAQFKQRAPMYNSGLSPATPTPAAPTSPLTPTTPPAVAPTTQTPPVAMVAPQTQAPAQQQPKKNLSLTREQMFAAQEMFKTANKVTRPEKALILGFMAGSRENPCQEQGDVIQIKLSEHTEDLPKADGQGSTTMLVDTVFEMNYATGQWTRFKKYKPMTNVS
# NELF-A full-length;NELF-B;NELF-D (called NELF-C), sequence (Q8WX92 whole entry, chain 2 of 3): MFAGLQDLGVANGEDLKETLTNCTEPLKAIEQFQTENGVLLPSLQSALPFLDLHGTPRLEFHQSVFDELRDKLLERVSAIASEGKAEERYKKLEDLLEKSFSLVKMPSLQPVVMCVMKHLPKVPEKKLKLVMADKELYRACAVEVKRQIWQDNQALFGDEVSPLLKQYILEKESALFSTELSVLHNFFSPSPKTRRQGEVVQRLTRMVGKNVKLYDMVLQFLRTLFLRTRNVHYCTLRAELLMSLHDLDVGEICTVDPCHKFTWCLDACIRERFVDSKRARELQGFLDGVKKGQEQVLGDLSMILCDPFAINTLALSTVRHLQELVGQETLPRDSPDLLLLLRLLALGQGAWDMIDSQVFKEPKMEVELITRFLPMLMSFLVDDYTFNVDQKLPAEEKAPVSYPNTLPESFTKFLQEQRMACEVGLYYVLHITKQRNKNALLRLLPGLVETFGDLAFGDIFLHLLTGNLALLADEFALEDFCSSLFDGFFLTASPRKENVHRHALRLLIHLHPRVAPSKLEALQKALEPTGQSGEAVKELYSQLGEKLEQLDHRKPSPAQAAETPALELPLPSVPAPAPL
# NELF-A full-length;NELF-B;NELF-D (called NELF-C), sequence (Q8IXH7 10-590, chain 3 of 3): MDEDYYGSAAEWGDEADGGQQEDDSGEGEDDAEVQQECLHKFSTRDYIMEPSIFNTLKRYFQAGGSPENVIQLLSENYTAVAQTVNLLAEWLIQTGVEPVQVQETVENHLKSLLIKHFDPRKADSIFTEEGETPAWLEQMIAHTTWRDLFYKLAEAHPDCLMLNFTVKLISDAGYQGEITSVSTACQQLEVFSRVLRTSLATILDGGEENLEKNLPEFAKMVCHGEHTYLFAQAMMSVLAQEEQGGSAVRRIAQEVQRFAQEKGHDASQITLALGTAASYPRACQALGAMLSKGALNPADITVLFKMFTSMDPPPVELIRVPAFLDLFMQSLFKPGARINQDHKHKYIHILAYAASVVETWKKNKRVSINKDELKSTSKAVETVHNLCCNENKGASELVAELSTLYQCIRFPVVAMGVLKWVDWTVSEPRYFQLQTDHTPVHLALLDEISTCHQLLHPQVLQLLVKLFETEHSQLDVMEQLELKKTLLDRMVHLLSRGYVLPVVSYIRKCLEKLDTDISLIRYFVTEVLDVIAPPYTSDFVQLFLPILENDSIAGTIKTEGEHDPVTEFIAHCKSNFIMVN
# [3] = molecular target: NELF-B;NELF-E (1-138) (Homo sapiens;Homo sapiens, UniProt Q8WX92;P18615 49-628;1-138, |); assay: as above; conditions: protein: recombinant;recombinant, tags: N-His6-TEV in NELF-B and NELF-BE constructs (cleaved);none stated, copies: 1;1, label: 5'-FAM
# NELF-B;NELF-E (1-138), sequence (Q8WX92 whole entry, chain 1 of 2): as the sequence (Q8WX92 whole entry, chain 2 of 3) above
# NELF-B;NELF-E (1-138), sequence (P18615 1-138, chain 2 of 2): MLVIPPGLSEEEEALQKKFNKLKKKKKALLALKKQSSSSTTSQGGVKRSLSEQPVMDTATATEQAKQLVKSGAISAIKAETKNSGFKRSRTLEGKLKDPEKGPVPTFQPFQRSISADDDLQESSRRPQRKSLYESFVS
# [4] = molecular target: NELF-A full-length;NELF-B;NELF-D (called NELF-C);NELF-E (1-138) (Homo sapiens;Homo sapiens;Homo …, UniProt Q9H3P2;Q8WX92;Q8IXH7-4;P18615 1-528;49-628;1-581;1-138, |||); assay: as above; conditions: protein: recombinant;recombinant;recombinant;recombinant, copies: 1;1;1;1, label: 5'-FAM
# NELF-A full-length;NELF-B;NELF-D (called NELF-C);NELF-E (1-138), sequence (Q9H3P2 whole entry, chain 1 of 4): as the sequence (Q9H3P2 whole entry, chain 1 of 3) above
# NELF-A full-length;NELF-B;NELF-D (called NELF-C);NELF-E (1-138), sequence (Q8WX92 whole entry, chain 2 of 4): as the sequence (Q8WX92 whole entry, chain 2 of 3) above
# NELF-A full-length;NELF-B;NELF-D (called NELF-C);NELF-E (1-138), sequence (Q8IXH7 10-590, chain 3 of 4): as the sequence (Q8IXH7 10-590, chain 3 of 3) above
# NELF-A full-length;NELF-B;NELF-D (called NELF-C);NELF-E (1-138), sequence (P18615 1-138, chain 4 of 4): as the sequence (P18615 1-138, chain 2 of 2) above
# [5] = molecular target: NELF-B (Homo sapiens, UniProt Q8WX92 49-628); assay: as above; conditions: protein: recombinant; tags: N-His6-TEV in NELF-B and NELF-BE constructs (cleaved); label: 5'-FAM; single strand
# [6] = molecular target: NELF-A full-length;NELF-B;NELF-D patch mutant (called NELF-C);NELF-E (1-138) (Homo sapiens;Homo sapiens;Homo …, UniProt Q9H3P2;Q8WX92;Q8IXH7-4;P18615 1-528;49-628;1-581;1-138, ||R282Q;K306M;K362M;K363M;K365M;K375M;K379M;R410Q;R497Q|); assay: as above; conditions: protein: recombinant;recombinant;recombinant;recombinant; copies: 1;1;1;1; label: 5'-FAM; single strand
# [7] = molecular target: NELF-A (6-188) patches 1,4;NELF-C (183-590) patches 1,2,3,4 (Homo sapiens;Homo sapiens, UniProt Q9H3P2;Q8IXH7 6-188;183-590, R65Q;R66Q;K146M;K161M;K168M;R175Q|R291Q;K315M;K371M;K372M;K374M;K384M;K388M;R419 …); assay: fluorescence anisotropy; NELF-AC: 30 mM NaCl, 3 mM MgCl2, 10 mM Na-HEPES pH 7.4, 2 mM DTT, 50 ug/ml BSA; other NELF complexes: same with 60 mM NaCl and 5 ug/ml yeast tRNA; 10 nM nucleic acid, incubated at RT, read at 30 C; conditions: protein: recombinant;recombinant; tags: N-His6 removed by thrombin;none; copies: 1;1; label: 5'-FAM; single strand
# [8] = molecular target: T1, NELF-A (6-188) patches 1,4;NELF-C (183-590) patches 1,2,4 (Homo sapiens;Homo sapiens, UniProt Q9H3P2;Q8IXH7 6-188;183-590, R65Q;R66Q;K146M;K161M;K168M;R175Q|R291Q;K315M;K371M;K372M;K374M;R419Q;R506Q); assay: as above; conditions: protein: recombinant;recombinant; tags: N-His6 removed by thrombin;none; copies: 1;1; label: 5'-FAM; single strand
# [9] = molecular target: T2, NELF-A full-length;NELF-B;NELF-D patch mutant (called NELF-C) (Homo sapiens;Homo sapiens;Homo sapiens, UniProt Q9H3P2;Q8WX92;Q8IXH7-4 1-528;49-628;1-581, ||R282Q;K306M;K362M;K363M;K365M;K375M;K379M;R410Q;R497Q); assay: fluorescence anisotropy; yeast tRNA 5 ug/ml; error as printed; NELF-AC: 30 mM NaCl, 3 mM MgCl2, 10 mM Na-HEPES pH 7.4, 2 mM DTT, 50 ug/ml BSA; other NELF complexes: same with 60 mM NaCl and 5 ug/ml yeast tRNA; 10 nM nucleic acid, incubated at RT, read at 30 C; conditions: protein: recombinant;recombinant;recombinant, tags: none stated;N-His6-TEV in NELF-B and NELF-BE constructs (cleaved);N-His6-TEV, copies: 1;1;1, label: 5'-FAM, single strand
# [10] = molecular target: NELF-A full-length;NELF-B;NELF-D (called NELF-C);NELF-E full-length (Homo sapiens;Homo sapiens;Homo …, UniProt Q9H3P2;Q8WX92;Q8IXH7-4;P18615 1-528;49-628;1-581;1-380, |||); assay: fluorescence anisotropy; yeast tRNA 5 ug/ml; NELF-AC: 30 mM NaCl, 3 mM MgCl2, 10 mM Na-HEPES pH 7.4, 2 mM DTT, 50 ug/ml BSA; other NELF complexes: same with 60 mM NaCl and 5 ug/ml yeast tRNA; 10 nM nucleic acid, incubated at RT, read at 30 C; conditions: protein: recombinant;recombinant;recombinant;recombinant; copies: 1;1;1;1; label: 5'-FAM; hairpin
# [11] = molecular target: T2, NELF-A full-length;NELF-B;NELF-D patch …; assay: as above; conditions: protein: recombinant;recombinant;recombinant; tags: none stated;N-His6-TEV in NELF-B and NELF-BE constructs (cleaved);N-His6-TEV, cleaved; copies: 1;1;1; label: 5'-FAM; single strand
# [12] = molecular target: T1, NELF-A (6-188) patches 1,4;NELF-C …; assay: fluorescence anisotropy; text says impaired; Bmax printed 12.92; NELF-AC: 30 mM NaCl, 3 mM MgCl2, 10 mM Na-HEPES pH 7.4, 2 mM DTT, 50 ug/ml BSA; other NELF complexes: same with 60 mM NaCl and 5 ug/ml yeast tRNA; 10 nM nucleic acid, incubated at RT, read at 30 C; conditions: protein: recombinant;recombinant; tags: N-His6 removed by thrombin;none; copies: 1;1; label: 5'-FAM; single strand
binder,measurement,setting,value
60% GC dsDNA (dsDNA) DNA 1: AAGGGGAGCGGGGGAGGATAATAGG DNA 2: CCTATTATCCTCCCCCGCTCCCCTT,binding result,[1]; label: 5'-FAM,no binding
AAGACTGAGCCGGCGGCCGC (ssDNA) [c-fos ssDNA],binding result,"[1]; label: 5'-FAM, single strand",binds
ACCCCACAACUAAAAAAUCCCAACC (ssRNA) [44% GC ssRNA],binding result,"[1]; label: 5'-FAM, single strand",no binding
AGCGGCCAGGCCAGCCUCGGAGCCA (ssRNA) [junB ssRNA],Kd,"[1]; label: 5'-FAM, single strand",~8000 nM
AAGGGGAGCGGGGGAGGAUAAUAGG (ssRNA) [60% GC ssRNA],Kd,[2]; single strand,74 ± 14 nM
same,Kd,[3]; single strand,2830 ± 1000 nM
same,Kd,[4]; single strand,30 ± 7 nM
same,Kd,[5],8500 ± 1590 nM
same,Kd,[6],94 ± 20 nM
same,Kd,"[1]; label: 5'-FAM, single strand",6870 ± 460 nM
same,Kd,[7],14300 ± 2670 nM
same,Kd,[8],14300 ± 2410 nM
same,Kd,[9],290 nM
CCAGAUCUGAGCCUGGGAGCUCUCUGG (structured_RNA) [HIV-1 TAR RNA stem loop],Kd,[2]; hairpin,1320 ± 180 nM
same,Kd,[3]; hairpin,5590 ± 1050 nM
same,Kd,[4]; hairpin,869 ± 140 nM
same,Kd,[10],146 ± 30 nM
60% GC DNA-RNA hybrid (DNA:RNA) DNA: AAGGGGAGCGGGGGAGGATAATAGG RNA: CCUAUUAUCCUCCCCCGCUCCCCUU,binding result,[1],no binding
AAGGGGAGCGGGGGAGGATAATAGG (ssDNA) [60% GC ssDNA],Kd,[2]; single strand,100 ± 30 nM
same,Kd,[3]; single strand,17400 ± 3500 nM
same,Kd,[4]; single strand,30 ± 10 nM
same,Kd,[11],770 ± 20 nM
same,Kd,[5],6310 ± 1920 nM
same,Kd,[6],300 ± 80 nM
same,Kd,[12],12900 ± 2280 nM
same,Kd,"[1]; label: 5'-FAM, single strand",17500 ± 1330 nM
